In article PMC4765350:

Legend:
[1] = target: BtuC2D2 (E. coli vitamin B12 ABC transporter, core transporter: ATPase + permease) (E. coli) (UniProt P06609)
[2] = target: BtuC2D2 (E. coli vitamin B12 ABC transporter, core transporter: ATPase + permease) (E. coli) (UniProt P06609); assay: SPR; His-BtuC2D2 that had worked (100 uM ATP, 1 mM MgCl2) for 7 hours, nucleotides removed, immobilised on a Ni-NTA chip; apo FLAG-BtuF injected at 0.1-2 uM; 25 °C, 50 mM Tris-HCl pH 7.5, 150 mM NaCl, 0.1% LDAO
[3] = target: BtuC2D2 (E. coli vitamin B12 ABC transporter, core transporter: ATPase + permease) (E. coli) (UniProt P06609); assay: SPR; fresh (naive) His-BtuC2D2 (1500-2000 RU) immobilised on a Ni-NTA chip, apo FLAG-BtuF injected at 0.1-2 uM; Biacore T200, 25 °C, 50 mM Tris-HCl pH 7.5, 150 mM NaCl, 0.1% LDAO, 15 uL/min

UniProt P06609, sequence (P06609 whole entry, chain 1 of 2): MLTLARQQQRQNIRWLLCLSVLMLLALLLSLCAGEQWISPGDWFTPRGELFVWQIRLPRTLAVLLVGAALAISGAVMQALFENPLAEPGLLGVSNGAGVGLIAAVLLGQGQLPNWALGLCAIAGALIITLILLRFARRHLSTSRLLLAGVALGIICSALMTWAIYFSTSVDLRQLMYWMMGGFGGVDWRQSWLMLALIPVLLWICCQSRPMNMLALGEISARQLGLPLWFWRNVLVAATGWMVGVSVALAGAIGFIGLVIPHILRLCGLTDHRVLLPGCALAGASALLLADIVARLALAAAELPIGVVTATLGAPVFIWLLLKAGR
UniProt P06609, sequence (P06611 whole entry, chain 2 of 2, further chain): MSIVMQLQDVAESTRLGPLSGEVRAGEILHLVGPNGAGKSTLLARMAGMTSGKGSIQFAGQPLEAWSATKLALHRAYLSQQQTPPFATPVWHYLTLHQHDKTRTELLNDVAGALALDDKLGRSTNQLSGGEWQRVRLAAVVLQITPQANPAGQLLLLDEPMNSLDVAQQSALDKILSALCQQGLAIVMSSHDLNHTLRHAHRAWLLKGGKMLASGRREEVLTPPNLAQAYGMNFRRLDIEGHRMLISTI

B1: BtuF, substrate binding protein (SBP) of the vitamin B12 transport system, FLAG-tagged (natural protein)
chain: APRVITLSPANTELAFAAGITPVGVSSYSDYPPQAQKIEQVSTWQGMNLERIVALKPDLVIAWRGGNAERQVDQLASLGIKVMWVDATSIEQIANALRQLAPWSPQPDKAEQAAQSLLDQYAQLKAQYADKPKKRVFLQFGINPPFTSGKESIQNQVLEVCGGENIFKDSRVPWPQVSREQVLARSPQAIVITGGPDQIPKIKQYWGEQLKIPVIPLTSDWFERASPRIILAAQQLCNALSQVD
uptake rate of 57Co vitamin B12 into proteoliposomes, BtuC2D2 that had worked 7 hours against its fresh precursor [1]: 60%
Kd [2]: 0.037 nM
improvement of BtuF binding of worked over fresh BtuC2D2 [2]: 35 to 60%
koff [2]: 1.1e-05 s⁻¹
kon [2]: 290000 M⁻¹ s⁻¹
Kd [3]: 0.036 nM
koff [3]: 1.2e-05 s⁻¹
kon [3]: 280000 M⁻¹ s⁻¹
